According to patent US11485776B2, “Antibodies against infectious diseases” (priority 2015, dated 2022):
“Also recorded” adds a separate entry of the source.

What was measured:
[1] = molecular target: T1, alpha-enolase on the surface of C. albicans (Candida albicans, UniProt P30575); experiment: Immunofluorescence staining of C. albicans; type: cell-based
T1 construct: endogenous in cells; host or cells: C. albicans SC 5314 and clinical isolates CA6-17, CA7-26, CA7-3, CA10-50, CA7-30, CA10-65
Excerpt: Anti-CaENO1 antibodies were used to detect alpha-enolase protein on C. albicans cell surface ENO1. (1) Detected with anti-CaENO1 IgY and developed by FITC conjugation rabbit anti-chicken antibodies. (2) Detected with scFv CaS1 and developed by goat anti-chicken light chain antibodies and FITC rabbit anti-goat antibodies. (3) An irrelevant scFv was used on negative control.
Anti-CaENO1 IgY, scFv CaS1 and control scFv were used in immunofluorescence assay for identification of CaS1 antibody to alpha-enolase on cell surface of C. albicans.

[2] = molecular target: T1, alpha-enolase on the surface of C. albicans; experiment: Flow cytometry of C. albicans, FITC binding; type: cell-based, C. albicans SC 5314; conditions: 100 ug antibody, 10^5 cells, 2 hours at 37° C.
Protocol: (A) C. albicans SC 5314 were cultured overnight and 10^5 cells were added to each tube with 2 ml YPD medium. Experiment antibodies were added to each tube (1) Anti-CaENO1 IgY (100 ug) (2) Control scFv (100 ug) (3) scFv CaS1 (100 ug) (4) PBS, and cultured 2 hours at 37° C. in an incubator. Goat anti-chicken light chain (1:1500) antibody was used as detected antibody; FITC donkey anti-goat antibody (1:1000) was used as developed antibody to detect the reaction. Propidium iodide (PI) (1 ug/ml) was used to detect cell death. (B) Quantification of flow cytometry result in the panel A (*, p<0.05;**, p<0.01). Flow cytometry is represented as mean±SD of the duplicated experiment.
Anti-CaENO1 IgY, scFv CaS1 and control scFv were contacted with C. albicans and then subjected to flow cytometry assay. Anti-CaENO1 IgY, scFv CaS1 and control scFv show 89.7+/−2.8%, 46.64+/−3.1% and 23+/−2.3% FITC fluorescence reaction (FIG. 7A), representing that the antibody can bind to alpha-enolase on the surface of C. albicans.

[3] = test system: C. albicans; experiment: C. albicans growth on YPD agar plate; type: cell-based; conditions: 0.5 mg/ml antibody pre-incubated 1 hr, 10x dilutions spotted
Protocol: (A) C. albicans were cultured in YPD medium overnight at 37° C. 10^8 cfu/ml of C. albicans was mixed with equal volume of 0.5 mg/ml anti-CaENO1 IgY, 0.5 mg/ml CaS1 scFv or 1×PBS, respectively, at room temperature for 1 hr. 1 ul of each mixture in 10× dilutions was spotted on YPD agar plate and incubated at 37° C. overnight. (B) 10^3 cfu of C. albicans was mixed with PBS (control), 10 or 100 µg/ml CaS1 scFv at room temperature for 1 hr. 1 ul of each mixture was spotted on YPD agar plate and incubated at 37° C. for 5 days. The hyphal formation was observed under the microscope.
To determine the effect of scFv antibodies on the cell growth and hyphal formation, anti-CaENO1 IgY (0.5 mg/ml) or CaS1 scFv (0.5 mg/ml) or PBS were pre-incubated with C. albicans (1×10^6 cfu) for 1 hr at 37° C. After incubation, 1 ul of each mixture in 10-fold dilutions was spotted on YPD agar plate and incubated at 37° C. overnight. 10^3 cfu of C. albicans was mixed with 0 (1×PBS control), 10 or 100 µg/ml CaS1 scFv at room temperature for 1 hr. Thereafter, 1 ul of each mixture was spotted on YPD agar plate and incubated at 37° C. for 5 days. […].
We evaluated the influence of CaS1 on growth of C. albicans, we pre-incubated CaS1 scFv with C. albicans and plated on the agar.

[4] = test system: C. albicans; experiment: Mouse model of C. albicans infection (survival); type: in vivo, ICR mice; conditions: for survival rate: ICR mice; for Protection against lethal challenge of C. albicans in mice: mouse, in vivo
Protocol: The mice were grouped and challenged with the mixture of 10^6 of C. albicans containing 10 ug and 100 ug CaS1 scFv, 100 ug anti-DA scFv (unrelated scFv control) or 1×PBS, respectively. The survival of mice was monitored at 1 day intervals for 10 days.
A total of 20 ICR female mice (purchased from National Laboratory Animal Center, Taiwan) weighing about 30 g were randomly grouped with 5 mice in each group. C. albicans were grown overnight and washed in normal saline. Four groups of mice were treated through the lateral tail vein with the following preparations: (i) 1×PBS alone; (ii) 1×10^6 cfu of C. albicans cells pre-incubated with 50 μg of CaS1; (iii) 1×10^6 cfu of C. albicans cells pre-incubated with 100 μg of CaS1; (iv) 1×10^6 cfu of C. albicans cells pre-incubated with anti-CaENO1 IgY. Mice were monitored for survival at 1 day intervals for 10 days. All treatments and handling of mice were carried out according to animal experimental protocols approved by the Institutional Animal Care and Use Committee of Taipei Medical University.
1×10^6 cells of C. albicans solutions were mixed with 100 μg of each of the anti-CaENO1 IgY, scFv CaS1 and control scFv and then injected into ICR mice (5 mice for each group).
We evaluated the survival rate of the CaS1 on animal model. Initially ICR mice were tail-vein injected with 1×10^6 cells of C. albicans with PBS alone or cells pre-incubated with CaS1 (10 and 100 μg) for one hour at 37° C. […] Anti-Deinagkistrodon acutus scFv (anti-DA) is an antibody to snake venom, which was used as an unrelated scFv control.

T1 sequence (P30575 whole entry): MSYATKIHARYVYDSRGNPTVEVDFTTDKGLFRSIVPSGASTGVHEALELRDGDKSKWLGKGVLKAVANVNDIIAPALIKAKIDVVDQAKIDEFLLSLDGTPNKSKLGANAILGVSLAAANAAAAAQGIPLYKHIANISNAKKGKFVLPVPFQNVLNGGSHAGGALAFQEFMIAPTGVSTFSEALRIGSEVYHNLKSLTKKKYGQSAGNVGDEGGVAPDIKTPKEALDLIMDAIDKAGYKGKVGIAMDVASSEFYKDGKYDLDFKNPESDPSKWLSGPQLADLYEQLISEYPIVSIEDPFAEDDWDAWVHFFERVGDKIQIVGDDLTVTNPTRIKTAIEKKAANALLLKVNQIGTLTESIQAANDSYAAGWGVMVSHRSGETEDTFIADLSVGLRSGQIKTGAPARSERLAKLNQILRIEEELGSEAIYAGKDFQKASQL

B1: CaS1 scFv: anti-CaENO1 scFv monoclonal antibody from chicken phage library; light chain SEQ ID NO:11, heavy chain SEQ ID NO:12 (antibody, V domains shown)
VH: TVTLDESGGGLQTPRGALSLVCKASGFTFIDYGMQWVRQAPGKGLEWVAGIGSSGSSTNYGAAVKGRATISRDDGQSTVRLQLNNLRAEDTGTYYCAKSAGGYCVNGAGCNGGSIDAWGHGTEVIVSS
VL: ALTQPSSVSANLGGTVKITCSGGSGSYGWYQQKSPGSAPVTVIYSNNQRPSNIPSRFSGSPSGSTGTLTITGVQADDEAVYFCGSRDSSYVGVFGAGTTLTVL
modifications: scFv linker; amino acid sequence comprised in a heavy chain of an anti-CaENO1 scFv monoclonal antibody (CaS1); amino acid sequence comprised in a light chain of an anti-CaENO1 scFv monoclonal antibody (CaS1)
Binding to alpha-enolase on the surface of C. albicans (immunofluorescence) [1]: bind | FITC fluorescence reaction [2]: 46.64+/−3.1% | C. albicans growth on YPD agar plate [3]: decreased C. albicans growth | C. albicans growth on YPD agar plate ([3]; listed as CaS1): attenuated the growth | survival rate ([4]; 10 μg pre-incubated with 1×10^6 cells of C. albicans, tail-vein): 40% | survival rate ([4]; 100 μg mixed with 1×10^6 cells of C. albicans, 10 days): 80% | Protection against lethal challenge of C. albicans in mice [4]: partial protect activity; also recorded: significant protective activity | Protection against lethal challenge of C. albicans in mice ([4]; listed as CaS1 antibody): prolonged the survival time
